For 17 molecules, Kd results are on record in US20250154283A1 (published 2025).

Positions count from the first letter of the chain named.

Test [1] has as its target T1, biotinylated human VWF cysteine knot (CK) domain construct (human, UniProt P04275 2724-2813, biotinylated in vitro (BirA) on the biotinylation tag; one N-glycan).
T1 construct: Expressed in HEK293 EBNA cells; disulfide-linked homodimer; also called human VWF CK; human VWF CK domain; not shown: in vitro biotinylation tag, HRV-3C site and 3 VWF residues before the CK domain
As to the kind of experiment: SPR, scFv captured via anti-SV5, CK domain injected, pH 5.5, apparent Kd.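 Note: scFvs from crude yeast supernatants captured on chip-bound anti-SV5 antibody, Kd computed as koff divided by kon, dimeric CK construct likely makes affinity appear higher.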

In test [2] the target is T2, biotinylated cynomolgus monkey VWF cysteine knot (CK) domain construct (cynomolgus monkey, biotinylated in vitro (BirA) on the biotinylation tag; one N-glycan).
T2 construct: Expressed in HEK293 EBNA cells; disulfide-linked homodimer; also called cyno VWF CK; cyno VWF CK domain; not shown: in vitro biotinylation tag, HRV-3C site and 3 VWF residues before the CK domain
T2 chain: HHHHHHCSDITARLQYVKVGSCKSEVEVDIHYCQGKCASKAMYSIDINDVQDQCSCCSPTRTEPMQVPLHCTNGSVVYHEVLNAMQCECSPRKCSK
In words: SPR, scFv captured via anti-SV5, CK domain injected, pH 7.4, apparent Kd.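 Note: scFvs from crude yeast supernatants printed on an amine-coupled anti-SV5 lawn, Kd computed as koff over kon, likely overestimating affinity because the CK construct is dimeric.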

For test [3], the target named is T1, biotinylated human VWF cysteine knot …. Described as above.
Excerpt: Briefly, a sensor chip was activated and coupled with an anti-SV5 mouse monoclonal antibody using amine coupling. The soluble scFvs in crude yeast supernatants were printed on the anti-SV5 lawn. […] From the measured association (kₒₙ) and dissociation (koff) rate constants, an apparent equilibrium dissociation constant (Kd=koff/kₒₙ) was estimated. Due to the dimeric state of the CK construct and consequent possibility for simultaneous binding of captured scFv to both monomers in the CK dimer, the SPR setup was expected to overestimate the binding affinity.

B1: Lib1_P1_E9_scFv (scFv)
scFv: QVQLVQSGAEVKKPGASVKVSCKVSGYTFTSHIIHWVRQAPGKGLEWMGGMNPYSNKAIYAQKFQGRVTMTEDTSTDTAYMELSSLKSEDTAVYYCARDASDYGDYGYYYYYMDVWGKGTTVTVSSSGGSTITSYNVYYTKLSSSGTDIQMTQSPSSVSASVGDRVTITCRASQYIGNDLAWYQQKPGKAPKLLIYEASQRPSGVPSRFSGSGSGTDFTLTISSLQPEDFANYYCQQQYNYPLTFGGGTKVEIK
notes: VH-linker-VL; not shown: C-terminal 3xFLAG and SV5 tags
As to B1, the Kd was determined as 0.639 nM in test [1], 0.536 nM in test [2] and 0.915 nM in test [3].

B2: Lib4_P2_B4_scFv (scFv)
scFv: QVQLQESGPGLVKPSQTLSLTCTVSGASLGDQYWSWIRQPPGKGLEWIGYIHPSGDFDYNPSLKSRVTMSVDTSKNQFSLKVNSVTAADTAVYYCARHYSSSWYGTWYFDLWGRGTLVTVSSSGGSTITSYNVYYTKLSSSGTEIVMTQSPATLSLSPGERATLSCRASQNIGTNLAWYQQKPGQAPRLLIYDASVRAAGIPARFSGSGSGTDFTLTISSLEPEDFAVYYCQQSLTTPLTFGGGTKVEIK
notes: as for B1
In the case of B2, the Kd in test [1] was 0.225 nM; in test [2] it was 0.096 nM; in test [3], 1.07 nM.

B3: 189_Lib4_scFv (scFv)
scFv: QVQLQESGPGLVKPSQTLSLTCTVSGVTFSSYGWSWIRQPPGKGLEWIGYVDTSGSTDYNPSLKSRVTMSVDTSKNQFSLKVNSVTAADTAVYYCARTTYYYDSSGFARGWFDPWGQGTLVTVSSSGGSTITSYNVYYTKLSSSGTEIVMTQSPATLSLSPGERATLSCRASQSVPSSHLAWYQQKPGQAPRLLIYDATNRAAGIPARFSGSGSGTDFTLTISSLEPEDFAVYYCQQYDNWPSPSFGGGTKVEIK
notes: as for B1
As for B3, the Kd was determined as 0.269 nM in test [1], 0.441 nM in test [2] and 1.37 nM in test [3].

B4: Lib6_P3_B9_scFv (scFv)
scFv: EVQLVQSGAEVKKPGASVKVSCKASGDTFSSHVISWVRQAPGQGLEWMGGINPRTGTTIYAQKLQGRGTMTTDPSTSTAYMELRSLRSDDTAVYYCARTRPWAGLDVWGQGTTVTVSSSGGSTITSYNVYYTKLSSSGTESALTQPASVSGSPGQSITISCTGTNIEYKGVSWYQQHPGKAPKLMIYGVDKRPSGVSNRFSGSKSGNTASLTISGLQAEDEADYYCQAWGTSTAIFGGGTKLTVL
notes: as for B1
Turning to B4, the Kd in test [1] came out at 1.22 nM; in test [2] it was 1.03 nM; in test [3], 1.41 nM.

B5: Lib1_P1_C6_scFv (scFv)
scFv: QVQLVQSGAEVKKPGASVKVSCKVSGYTFASHYIHWVRQAPGKGLEWMGGMDPATGQTIYAQKFQGRVTMTEDTSTDTAYMELSSLKSEDTAVYYCAKGDRSSWYEVLSFQHWGQGTLVTVSSSGGSTITSYNVYYTKLSSSGTDIQMTQSPSSVSASVGDRVTITCRASQGISTDLAWYQQKPGKAPKLLIYDASILQRGVPSRFSGSGSGTDFTLTISSLQPEDFANYYCQQVRTYPFTFGGGTKVEIK
notes: as for B1
As for B5, the figures for the Kd in test [1], in test [2] and in test [3] were 1.43 nM, 0.697 nM and 0.691 nM, respectively.

B6: Lib4_P2_A5_scFv (scFv)
scFv: QVQLQESGPGLVKPSQTLSLTCTVSGSSISSSSDYWSWIRQPPGKGLEWIGYIDISGDADYNPSLKSRVTMSVDTSKNQFSLKVNSVTAADTAVYYCARHLSSGWYGTYYFDYWGQGTLVTVSSSGGSTITSYNVYYTKLSSSGTEIVMTQSPATLSLSPGERATLSCRASQNIHSNLAWYQQKPGQAPRLLIYDASSRATGIPARFSGSGSGTDFTLTISSLEPEDFAVYYCQQGYTKPLTFGGGTKVEIK
notes: as for B1
Turning to B6, the Kd in test [1] was found to be 0.123 nM; in test [2], 0.128 nM; in test [3], 0.493 nM.

B7: 3964_Lib4_scFv (scFv)
scFv: QVQLQESGPGLVKPSQTLSLTCTVSGASISTHSWSWIRQPPGKGLEWIGYINPSGDIDYNPSLKSRVTMSVDTSKNQFSLKVNSVTAADTAVYYCARGRTGFDSSGFVVGAFDIWGQGTMVTVSSSGGSTITSYNVYYTKLSSSGTEIVMTQSPATLSLSPGERATLSCRASQNVNDNLAWYQQKPGQAPRLLIYDASTRPTGIPARFSGSGSGTDFTLTISSLEPEDFAVYYCQQYLTIPRTFGGGTKVEIK
notes: as for B1
As for B7, the Kd in test [1] is 0.737 nM; in test [2], 0.689 nM; in test [3], 1.13 nM.

B8: 4142_Lib1_scFv (scFv)
scFv: QVQLVQSGAEVKKPGASVKVSCKVSGYPFTSSGIHWVRQAPGKGLEWMGGVIPLFGTANYAQKFQGRVTMTEDTSTDTAYMELSSLKSEDTAVYYCARIRVSSGWYRDYGMDVWGQGTTVTVSSSGGSTITSYNVYYTKLSSSGTDIQMTQSPSSVSASVGDRVTITCRASQDITNDLAWYQQKPGKAPKLLIYDASRLQSGVPSRFSGSGSGTDFTLTISSLQPEDFANYYCQQTFTTPLTFGGGTKVEIK
notes: as for B1
On to B8, for which the Kd came out at 0.634 nM in test [1], 0.999 nM in test [2] and 0.839 nM in test [3].

B9: 4029_Lib1_scFv (scFv)
scFv: B8 scFv with D173S, T175G, N176D, D177F, R198H, S201T, F237S, T239I, L241P
notes: as for B1
Turning to B9, the Kd was 2.58 nM in test [1], 4.67 nM in test [2] and 4.27 nM in test [3].

B10: 2738_Lib1_scFv (scFv)
scFv: QVQLVQSGAEVKKPGASVKVSCKVSGYTLTDLPIHWVRQAPGKGLEWMGGINPFLGTTIYAQKFQGRVTMTEDTSTDTAYMELSSLKSEDTAVYYCARGVDMLATARDYYYMAIWGKGTTVTVSSSGGSTITSYNVYYTKLSSSGTDIQMTQSPSSVSASVGDRVTITCRASQSIGNDLAWYQQKPGKAPKLLIYGASMRATGVPSRFSGSGSGTDFTLTISSLQPEDFANYYCQQYASDPLTFGGGTKVEIK
notes: as for B1
Consider B10, for which the Kd in test [1] was 0.519 nM; in test [2] it was 0.922 nM; in test [3], 1.18 nM.

B11: 4166_Lib4_scFv (scFv)
scFv: QVQLQESGPGLVKPSQTLSLTCTVSGESFSGHFWSWIRQPPGKGLEWIGYISQSGRTDYNPSLKSRVTMSVDTSKNQFSLKVNSVTAADTAVYYCARTLPRIQLWSPRGAFDIWGQGTMVTVSSSGGSTITSYNVYYTKLSSSGTEIVMTQSPATLSLSPGERATLSCRASQSLGRSLAWYQQKPGQAPRLLIYDASHRATGIPARFSGSGSGTDFTLTISSLEPEDFAVYYCQQYVSYPLTFGGGTKVEIK
notes: as for B1
Take B11: the figures for the Kd in test [1], in test [2] and in test [3] were 0.567 nM, 0.38 nM and 0.958 nM, respectively.

B12: 3552_Lib8_scFv (scFv)
scFv: EVQLVESGGGLVQPGRSLRLSCAASEFTFGDYDMHWVRQAPGKGLEWVSAISSSGSNRDYADSVEGRFTISRDNAKNSLYLQMNSLRAEDTAVYYCARDAWFGDAFDIWGQGTMVTVSSSGGSTITSYNVYYTKLSSSGTDIQMTQSPSSLSASVGDRVTITCRASESVSSWLAWYQQKPGKAPKLLIYGASTLEGGVPSRFSGSGSGTDFTLTISSLQPEDVATYYCQQSYSFPDFGGGTKVEIK
notes: as for B1
On to B12, for which the results for the Kd in test [1], in test [2] and in test [3] were 0.412 nM, 0.018 nM and 1.16 nM, respectively.

B13: Lib8_P4_D4_scFv (scFv)
scFv: QVQLVQSGAEVKKPGASVKVSCKVSGDTLSNYAIHWVRQAPGKGLEWMGGINPNAGTTIYAQKFQGRVTMTEDTSTDTAYMELSSLKSEDTAVYYCARDSSSWCPVGYYYYYMDVWGKGTTVTVSSSGGSTITSYNVYYTKLSSSGTDIQMTQSPSSVSASVGDRVTITCRASQSIGDFLAWYQQKPGKAPKLLIYDASHLQTGVPSRFSGSGSGTDFTLTISSLQPEDFANYYCQQTSTIPPTFGGGTKVEIK
notes: as for B1
Take B13: the Kd in test [1] was 0.397 nM; in test [2], 0.206 nM; in test [3] it was 0.917 nM.

B14: Lib8_P4_C11_scFv (scFv)
scFv: B13 scFv
notes: as for B1
B14: the Kd in test [1] came to 0.617 nM; in test [2], 0.155 nM; in test [3], 1.08 nM.

B15: Lib1_P1_A1_scFv (scFv)
scFv: B13 scFv with C104S, P105Q, V106F
notes: as for B1
On to B15, for which the Kd in test [1] amounted to 0.202 nM; in test [2], 1.08 nM; in test [3] it was 1.38 nM.

B16: Lib4_P2_A1_scFv (scFv)
scFv: QVQLQESGPGLVKPSQTLSLTCTVSGASFGDNYWSWIRQPPGKGLEWIGYIDTSGSSDYNPSLKSRVTMSVDTSKNQFSLKVNSVTAADTAVYYCARVSWGYYAMDVWGQGTTVTVSSSGGSTITSYNVYYTKLSSSGTEIVMTQSPATLSLSPGERATLSCRASQGISGRLAWYQQKPGQAPRLLIYDVSTRATGIPARFSGSGSGTDFTLTISSLEPEDFAVYYCQQYDTSAPLTFGGGTKVEIK
notes: as for B1
Regarding B16, the Kd in test [1] came out at 0.235 nM; in test [2] it was 0.031 nM; in test [3], 1.2 nM.

B17: Lib1_P1_D1_scFv (scFv)
scFv: QVQLVQSGAEVKKPGASVKVSCKVSGDTFTDRYIHWVRQAPGKGLEWMGGINTIFGTAIYAQKFQGRVTMTEDTSTDTAYMELSSLKSEDTAVYYCAREGATVSTNFDYWGQGTLVTVSSSGGSTITSYNVYYTKLSSSGTDIQMTQSPSSVSASVGDRVTITCRASQDIRKSLAWYQQKPGKAPKLLIYDISNRPSGVPSRFSGSGSGTDFTLTISSLQPEDFANYYCQQGYSAPYGFGGGTKVEIK
notes: as for B1
As to B17, the Kd in test [1] was 0.338 nM; in test [2] it was 0.187 nM; in test [3], 0.589 nM.
